Here are results for one substance from publication PMC2082060.

In the test the target is GST-endophilin I (recombinant) (UniProt O35179). Briefly: sequential GST pull-down, 32P autoradiography. Particulars: reference: total dynamin I of the lysate; sites S774,S778.

As to “dynamin I (from UniProt P21575) 32P-labelled phospho-dynamin I of same lysate”, the other: phospho/total bound dynamin I, % of AmphI-SH3 control is 91%.
